Tests used:
normal human melanocytes = assay: Flow cytometry of normal human melanocytes and SK-MEL-5 cells; assay type: binding; conditions: intensity comparable to SK-MEL-5
Description: Normal human melanocytes and SK-MEL-5 melanoma cells were reacted with chimeric 17A9, or no primary antibody, followed by Alexa 488-labeled anti-human IgG and analyzed by flow cytometry.

human PMEL17 [1] = target: T1, human PMEL17 (Homo sapiens, UniProt P40967); assay: FACS screening of anti-PMEL17 hybridoma antibodies on live cells; assay type: binding; conditions: live melanoma cells, normal human melanocytes, PC3 cell line stably expressing PMEL17 cDNA
T1 construct: endogenous in cells; host or cells: SK-MEL-23, 1300mel, SKMEL5 (ATCC HTB-70), UACC257, normal melanocytes (Invitrogen); also PC3 stably expressing human PMEL17
T1 sequence (P40967 25-469): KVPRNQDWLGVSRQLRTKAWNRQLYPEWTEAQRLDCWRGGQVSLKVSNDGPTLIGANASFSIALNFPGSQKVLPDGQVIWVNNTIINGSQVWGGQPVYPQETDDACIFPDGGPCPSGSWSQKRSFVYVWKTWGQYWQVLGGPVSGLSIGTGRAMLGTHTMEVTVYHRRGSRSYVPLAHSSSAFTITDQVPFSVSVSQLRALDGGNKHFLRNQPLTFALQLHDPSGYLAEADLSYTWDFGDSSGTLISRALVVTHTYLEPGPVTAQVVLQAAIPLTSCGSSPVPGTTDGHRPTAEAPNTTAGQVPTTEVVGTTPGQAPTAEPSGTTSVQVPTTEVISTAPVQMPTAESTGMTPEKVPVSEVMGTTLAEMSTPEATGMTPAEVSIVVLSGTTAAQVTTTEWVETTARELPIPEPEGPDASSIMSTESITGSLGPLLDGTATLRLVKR
T1 sequence (P40967 470-661): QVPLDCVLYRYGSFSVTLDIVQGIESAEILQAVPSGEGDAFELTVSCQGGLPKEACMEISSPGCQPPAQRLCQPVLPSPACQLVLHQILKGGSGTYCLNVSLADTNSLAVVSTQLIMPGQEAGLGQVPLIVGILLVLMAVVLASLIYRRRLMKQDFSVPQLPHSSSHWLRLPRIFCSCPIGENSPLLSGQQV

human PMEL17 [2] = assay: as above; assay type: binding; conditions: parental PC3 cell line
PMEL17 [3] = target: T2, PMEL17 (Homo sapiens, UniProt P40967); assay: Immunohistochemistry of human melanoma tissue specimens; set-up: The expression of PMEL17 was evaluated across a panel of human melanoma tissue specimines by immunohistochemistry; from tissue; host or cells: 58 human melanoma specimens (30 primary, 28 metastatic); conditions: 58 specimens (30 primary, 28 metastatic)
T2 sequence (P40967 25-661): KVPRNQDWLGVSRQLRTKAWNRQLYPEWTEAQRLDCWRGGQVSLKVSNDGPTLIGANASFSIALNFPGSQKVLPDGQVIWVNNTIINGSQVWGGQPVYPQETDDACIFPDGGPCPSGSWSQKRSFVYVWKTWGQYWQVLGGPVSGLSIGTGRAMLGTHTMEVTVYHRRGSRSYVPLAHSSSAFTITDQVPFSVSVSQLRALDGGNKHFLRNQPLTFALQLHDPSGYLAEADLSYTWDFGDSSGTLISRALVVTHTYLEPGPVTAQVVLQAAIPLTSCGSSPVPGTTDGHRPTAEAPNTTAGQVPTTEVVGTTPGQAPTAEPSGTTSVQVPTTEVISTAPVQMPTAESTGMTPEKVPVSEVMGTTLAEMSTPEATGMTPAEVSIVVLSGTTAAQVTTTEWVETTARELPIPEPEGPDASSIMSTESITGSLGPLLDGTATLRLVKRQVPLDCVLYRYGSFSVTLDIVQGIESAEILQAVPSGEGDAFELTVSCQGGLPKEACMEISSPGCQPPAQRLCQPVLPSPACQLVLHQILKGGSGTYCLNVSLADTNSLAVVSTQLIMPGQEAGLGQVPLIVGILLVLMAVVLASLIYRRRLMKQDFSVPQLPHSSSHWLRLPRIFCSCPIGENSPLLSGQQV
Method: To assess the potential liability of targeting PMEL17 on normal melanocytes, the level of expression of this target in normal human skin was evaluated by immunohistochemistry. Immunohistochemistry (IHC) was performed on 4 μm thick formalin-fixed paraffin embedded tissue sections mounted on glass slides. All IHC steps were carried out on the Ventana Discovery XT (Ventana Medical Systems; Tucson, Ariz.) autostainer. Pretreatment was done with Cell Conditioner 1, standard time. Primary antibody, PMEL17 clone 31D1 was used at a concentration of 10 μg/ml and was incubated on slides for 1 hour at 37° C. Ventana Mouse OmniMap (Ventana Medical Systems; AZ) was used as the detection system. […]
The expression of PMEL17 was evaluated across a panel of human melanoma tissue specimines by immunohistochemistry substantially as described above, using both 17A9 and 31D1. Staining was scored on an arbitrary scale ranging from zero, for absent, to 3+ for most intense: • 0 (negative): very weak or no staining in >90% of melanoma cells • 1+(mild): predominant staining pattern is weak • 2+(moderate): predominant staining pattern is moderately strong in the majority (>50%) of melanoma cells • 3+(strong): predominant staining pattern is strong in the majority (>50%) of melanoma cells Exemplary staining for each of the levels of the scale is shown in FIG. 7A, left panels.

rat PMEL17 = assay: Species cross-reactivity by FACS, 293S cells stably transfected with gD tagged PMEL17; assay type: binding; conditions: 10 μg/ml antibody
Method: (§1) Antibody 17A9 was tested to determine if it cross-reacts with PMEL17 from species other than human. […] All of the sequences include the signal sequence except for the cynomolgus monkey PMEL17. Residues that are identical among all four species are indicated by asterisks (*). In the region where the rat sequence has a deletion, residues that are identical among the remaining three species are indicated by a plus (+). Binding to each species of PMEL17 was determined by FACS analysis using 293S cells stably transfected with an N-terminal gD tagged PMEL17 (human, cynomolgus monkey, rat, or mouse PMEL17); stained with 10 μg/ml 17A9 antibody; and detected with R-Phycoerythrin conjugated goat anti-mouse antibody.

cynomolgus monkey PMEL17 = assay: as above; assay type: binding; conditions: 10 μg/ml antibody
Chain of cynomolgus monkey PMEL17 (as listed by the source): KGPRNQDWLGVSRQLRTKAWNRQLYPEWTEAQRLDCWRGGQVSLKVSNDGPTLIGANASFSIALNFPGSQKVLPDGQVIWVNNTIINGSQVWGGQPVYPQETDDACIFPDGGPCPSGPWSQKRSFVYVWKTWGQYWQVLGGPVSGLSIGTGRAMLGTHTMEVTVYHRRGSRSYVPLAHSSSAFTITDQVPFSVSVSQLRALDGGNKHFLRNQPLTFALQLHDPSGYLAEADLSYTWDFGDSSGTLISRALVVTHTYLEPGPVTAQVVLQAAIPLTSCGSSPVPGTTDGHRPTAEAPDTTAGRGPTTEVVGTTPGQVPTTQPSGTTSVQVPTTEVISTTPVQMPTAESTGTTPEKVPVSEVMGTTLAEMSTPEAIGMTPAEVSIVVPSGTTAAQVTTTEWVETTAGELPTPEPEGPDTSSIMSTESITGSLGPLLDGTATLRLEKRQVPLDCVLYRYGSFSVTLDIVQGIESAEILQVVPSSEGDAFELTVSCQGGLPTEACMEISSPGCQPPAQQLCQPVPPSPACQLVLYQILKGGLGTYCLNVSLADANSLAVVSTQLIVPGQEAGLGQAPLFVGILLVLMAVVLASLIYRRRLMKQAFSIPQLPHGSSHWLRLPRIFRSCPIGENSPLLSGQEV
Method: as §1

PMEL17 [4] = target: T2, PMEL17; assay: as above; assay type: binding; set-up: gD tag (N); expressed in transfected cells; conditions: 10 μg/ml antibody
Method: as §1

B1: 17A9 (antibody, listed as Mus musculus, V domains shown)
VH: EVQLQQSGPELVKPGASMKISCKSSGYSFTRYTMNWVKQSHGKNLEWIGVINPYNGGTVYNQKFKGKATLTVDKSSSTAYMELLSLTSEDSAVYYCARTDYDGYAMDYWGQGTSVTVSS
VL: DVQITQSPSYLAASPGETITINCRATKSISKYLAWYQEQPGKTNNLLIYSGSTLQSGIPSRFSGSGSGTDFTLTISSLEPEDFAMYYCQQHNEYPYTFGSGTKLEIK
- FACS staining of cultured normal human melanocytes (normal human melanocytes): FACS+
- FACS reactivity with live cells expressing PMEL17 (human PMEL17 [1]): reacted strongly
- FACS reactivity with parental PC3 cell line (human PMEL17 [2]): not the parental PC3 cell line
- human melanoma specimens PMEL17+ when detected with the antibody (PMEL17 [3]): 64%
- binding to rat PMEL17 by FACS (rat PMEL17): bind
- binding to cynomolgus monkey PMEL17 by FACS (cynomolgus monkey PMEL17): bind
- binding to human PMEL17 by FACS (PMEL17 [4]): bind
